# Assay results: PMC3786598 (Microscopy and microanalysis : the official journal of …, 2012)
# B1: prestin-eGFP (natural protein, UniProt Q9JKQ2 1-744, looked up)
# chain: MDHAEENEIPVATQKYHVERPIFSHPVLQERLHVKDKVSESIGDKLKQAFTCTPKKIRNIIYMFLPITKWLPAYKFKEYVLGDLVSGISTGVLQLPQGLAFAMLAAVPPVFGLYSSFYPVIMYCFFGTSRHISIGPFAVISLMIGGVAVRLVPDDIVIPGGVNATNGTEARDALRVKVAMSVTLLSGIIQFCLGVCRFGFVAIYLTEPLVRGFTTAAAVHVFTSMLKYLFGVKTKRYSGIFSVVYSTVAVLQNVKNLNVCSLGVGLMVFGLLLGGKEFNERFKEKLPAPIPLEFFAVVMGTGISAGFNLHESYSVDVVGTLPLGLLPPANPDTSLFHLVYVDAIAIAIVGFSVTISMAKTLANKHGYQVDGNQELIALGICNSIGSLFQTFSISCSLSRSLVQEGTGGKTQLAGCLASLMILLVILATGFLFESLPQAVLSAIVIVNLKGMFMQFSDLPFFWRTSKIELTIWLTTFVSSLFLGLDYGLITAVIIALLTVIYRTQSPSYKVLGQLPDTDVYIDIDAYEEVKEIPGIKIFQINAPIYYANSDLYSNALKRKTGVNPALIMGARRKAMRKYAKEVGNANIANAAVVKVDGEVDGENATKPEEEDDEVKYPPIVIKTTFPEELQRFMPQTENVHTIILDFTQVNFIDSVGVKTLAVMVKEYGDVGIYVYLAGCSPQVVNDLTRNRFFENPALKELLFHSIHDAVLGSHVREAMAEQEASAPPPQDDMEPNATPTTPEA
# Biological target: the molecule itself
# Assay: single-molecule stepwise photobleaching
protein,measurement,value
B1,stoichiometry N,4
